Reference: patent publication US20250376507A1, “NOVEL TUMOR ANTIGEN-TARGETING ANTICANCER AGENT” (INDUSTRY FOUNDATION OF CHONNAM NATIONAL UNIVERSITY, priority 2022, published 2025)
Values joined by “and” are separate entries in the source; they are usually repeats but may differ in a detail not shown here. Equal entries are not always repeated.

Key:
[1] = L-ASNase activity analysis (asparaginase activity kit); type: biochemical; conditions: 25° C.
Description: The L-ASNase enzyme activity of the recombinant proteins was measured with an asparaginase activity analysis kit using an OxiRed probe (Abcam, USA). 1 International unit (IU) was defined as the amount of enzyme generating 1.0 μmol of Asp per minute at 25° C.

CT-26 cells [2] = assay: Cell viability (CCK-8) of CT-26 cells; type: cell-based, mouse
Description: CT-26 and MC-38 cells (10^4 cells per well) were seeded into three wells of a 96-well plate and incubated at 37° C. The next day, the culture medium was replaced with 100 μL of fresh medium containing the above concentrations of anticancer agents. After incubation at 37° C. for 4 h, the culture medium was removed and the cells were washed three times with PBS. […] Finally, CCK-8 reagent (10 μL/well) was added for 3 h at 37° C., and the amount of color in each sample was measured at OD450.

[3] = In vivo pharmacokinetic analysis; set-up: species or system BALB/c mice; conditions: 10 IU intravenous, mouse serum
Description: Six-week-old female BALB/c mice (Orient Company, Korea) were randomly assigned to different treatment groups (n=3) and intravenously injected with 10 IU of PASylated recombinant protein. Then, blood samples were taken from the eyes at the specified time (0-52 h) and left at 4° C. for 40 min. After centrifugation at 12,000 rpm for 20 min, the serum fraction was obtained and stored at −80° C. before further analysis. PASylated recombinant protein in serum was assessed using the ELISA method described above. The amount of serum recombinant protein was converted to enzyme activity.

[4] = Thermal stability analysis at 55° C.; type: physicochemical; conditions: after 180 min
Description: Briefly, 200 μL of PASylated recombinant protein or L-ASNase (1 mg/mL) was incubated in a thermal cycler (Finepcr, Korea) at 55° C. for 30-180 min. The residual enzymatic activity of the proteins was measured using an asparaginase activity analysis kit as described above. The residual activity (%) at each incubation time was calculated relative to the sample activity at time 0.

CT-26 cells [5] = assay: Flow cytometry for ecto-CRT exposure in L-ASNase-treated CT-26 cells; type: cell-based, mouse; conditions: 200 IU/mL, 24 h
Description: FIG. 6a is a graph showing the analysis of the cytotoxicity enhanced by CRT3LP and CRT4LP in tumor cells treated with ICD-induced anticancer agents and the viability of tumor cells treated with L-ASNases. CT-26 cells (4×10^4) cultured overnight were treated with L-ASNases (200 IU/mL) in 96-well plates and viability was measured at the indicated times. The viability at each time was calculated relative to time 0. Cells were stained with anti-CRT antibodies.
FIG. 6b is a graph representing the results of flow cytometry histogram analysis for ecto-CRT. Filled black lines stained with isotype antibodies; red lines stained with anti-CRT antibodies.

B1: L-ASNase: L-asparaginase, enzyme that hydrolyzes L-asparagine; purchased from Prospec, used as free control (protein)
chain: LPNITILATGGTIAGGGDSATKSNYTAGKVGVENLVNAVPQLKDIANVKGEQVVNIGSQDMNDDVWLTLAKKINTDCDKTDGFVITHGTDTMEETAYFLDLTVKCDKPVVMVGAMRPSTSMSADGPFNLYNAVVTAADKASANRGVLVVMNDTVLDGRDVTKTNTTDVATFKSVNYGPLGYIHNGKIDYQRTPARKHTSDTPFDVSKLNELPKVGIVYNYANASDLPAKALVDAGYDGIVSAGVGNGNLYKTVFDTLATAAKNGTAVVRSSRVPTGATTQDVEVDDAKYGFVASGTLNPQKARVLLQLALTQTKDPQQIQQIFNQY
modifications: L-asparaginase
notes: L-asparaginase, enzyme that hydrolyzes L-asparagine; purchased from Prospec, used as free control
[1]
  enzymatic activity (specific activity): ~7.2 IU/nmol
CT-26 cells [2]; 1 IU/mL, 24 h after pretreatment
  reduction of cell viability in cells pretreated with anticancer agents: barely reduced
CT-26 cells [2]; 200 IU/mL, 24 h, no anticancer pretreatment
  cell viability: progressive decrease in viability
[3]
  half-life: 1.8 h and 1.79 ± 0.22 h
[4]
  residual enzymatic activity, of the initial activity: 16.4%
CT-26 cells [5]
  CRT exposure (ecto-CRT): no significant CRT exposure
